Columns and labels:
[1] = biological target: T1, soluble recombinant human vimentin (srhVim), full length, expressed from pET30 in E. coli (human, UniProt P08670 2-466); assay: ELISA, wells coated with PSGL-1/Fc 10 µg/mL, srhVim added at rising concentrations, detection with anti-His/HRP
T1 construct: also called full length vimentin; full-length Vimentin; not shown: His tag from pET30 (Ni2+ purification, anti-His detection)
Protocol: The observations in these experiments, in certain embodiments, are attributed to srhVim either affecting P-selectin, PSGL-1, or both. ELISA was performed by coating 96-well plates with either PSGL-1/Fc protein (10 μg/mL), P-selectin/Fc protein (10 μg/mL), or BSA (10 μg/mL) and adding various concentrations of srhVim to each well. Detection was through anti-His/HRP antibodies. Increasing amounts of srhVim bound to P-selectin/Fc protein and reached saturation at 20 μg/mL. There was no binding of srhVim to PSGL-1/Fc (FIG. 6B).

[2] = biological target: T2, recombinant human vimentin (rhVim), expressed from pQE-30 in E. coli M15 (human, UniProt P08670 2-466); assay: ELISA, wells coated with PSGL-1/Fc 10 µg/mL in DPBS, blocked with 1% BSA, rhVim added at rising concentrations, detection with HRP-conjugated anti-polyhistidine antibody
T2 construct: also called pQE-30-hVim product; not shown: polyhistidine tag from pQE-30 (Ni2+ purification, anti-polyhistidine detection)
T2 sequence (P08670 2-466): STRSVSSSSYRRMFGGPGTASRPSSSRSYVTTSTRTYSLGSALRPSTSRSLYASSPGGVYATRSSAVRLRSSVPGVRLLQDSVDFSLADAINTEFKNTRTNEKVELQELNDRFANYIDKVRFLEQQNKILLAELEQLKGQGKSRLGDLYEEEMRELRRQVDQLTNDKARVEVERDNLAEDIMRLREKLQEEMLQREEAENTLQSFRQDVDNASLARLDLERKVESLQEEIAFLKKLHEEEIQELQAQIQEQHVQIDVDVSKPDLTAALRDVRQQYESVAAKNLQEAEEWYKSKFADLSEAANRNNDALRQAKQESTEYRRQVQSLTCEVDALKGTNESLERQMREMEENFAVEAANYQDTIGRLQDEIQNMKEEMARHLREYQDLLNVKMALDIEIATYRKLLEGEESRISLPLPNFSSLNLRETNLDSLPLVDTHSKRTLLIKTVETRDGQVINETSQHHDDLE
Protocol: rhVim binding assay—To determine which proteins to which rhVim binds, we performed enzyme linked immunosorbent assays (ELISA) as we described (Da, et al., 2014). Immunoplate wells were coated overnight at 4° C. with P-selectin/Fc or PSGL-1/Fc (10 μg/ml in DPBS). Wells were washed with DPBS and then blocked with 1% BSA for one hour. After blocking, rhVim was added in increasing concentrations and detected using a HRP-conjugated anti-polyhistidine antibody. Tetramethylbenzidine solution was used as the substrate and the reactions were stopped using 1 N sulfuric acid. All ELISA measurements were performed in duplicate and the data reported were averaged from two separate experiments performed.
The effect of rhVim blocking PMN adhesion to P-selectin could be attributed to rhVim either affecting P-selectin, PSGL-1, or both. Therefore, ELISAs were performed with wells coated either PSGL-1/Fc protein (10 μg/mL) or P-selectin/Fc protein (10 μg/mL) and incubated with increasing concentrations of rhVim to each well. Increasing amounts of rhVim bound to P-selectin/Fc protein and reached saturation at 20 μg/mL. There was no binding of rhVim to PSGL-1/Fc at any concentration (FIG. 15C).

T1 sequence (P08670 2-466): as above

- binding result [1]: no binding (tested: 40 µg/mL)
- binding result [2]: no binding (tested: 40 µg/mL)
B1: PSGL-1/Fc protein (Fc fusion, UniProt Q14242 42-295, looked up)
chain: QATEYEYLDYDFLPETEPPEMLRNSTDTTPLTGPGTPESTTVEPAARRSTGLDAGGAVTELTTELANMGNLSTDSAAMEIQTTQPAATEAQTTQPVPTEAQTTPLAATEAQTTRLTATEAQTTPLAATEAQTTPPAATEAQTTQPTGLEAQTTAPAAMEAQTTAPAAMEAQTTPPAAMEAQTTQTTAMEAQTTAPEATEAQTTQPTATEAQTTPLAAMEALSTEPSATEALSMEPTTKRGLFIPFSVSSVTHKG
notes: Bought from R & D Systems; the species is not clearly stated; not shown: Fc part

From patent US20200061153A1 (BAYLOR COLLEGE OF MEDICINE, published 2020)
